Measurements from paper PMC3789972, “Human Mitochondrial Chaperone (mtHSP70) and Cysteine Desulfurase (NFS1) Bind Preferentially to the Disordered Conformation, Whereas Co-chaperone (HSC20) Binds to the Structured Conformation of the Iron-Sulfur Cluster Scaffold Protein (ISCU)*” (The Journal of Biological Chemistry, 2013).
Blank lines part the entries; values can stand above or below the molecule they belong to.

Key:
[1] = target: human ISCU(N90A), mature form (human); assay: NMR titration; 1H,15N TROSY-HSQC of 0.5 mM U-15N-ISCU or U-15N-ISCU(N90A), aliquots of 0.4 mM unlabeled HSC20 added up to equimolar; TKDM buffer, 25 °C; %S from the Trp-76 cross-peaks and chemical shift perturbations
[2] = target: human iron-sulfur cluster scaffold protein ISCU, wild type, mature form (human) (UniProt Q9H1K1); assay: as above
[3] = target: human ISCU(N90A), mature form (human); assay: NMR titration; 1H,15N HSQC / TROSY-HSQC of 0.5 mM U-15N-ISCU or variant, aliquots of 0.5 mM unlabeled mtHSP70 added up to equimolar; TKDM buffer (50 mM Tris-HCl pH 7.5, 150 mM KCl, 5 mM DTT, 10 mM MgCl2), 25 °C; %S from the Trp-76 cross-peaks
[4] = target: human ISCU(H105A), mature form (human); assay: as above
[5] = target: human mitochondrial DnaK-type chaperone mtHSP70, mature form (human) (UniProt P38646)
Sequence of human mitochondrial DnaK-type chaperone mtHSP70, mature form (human) (P38646 47-679): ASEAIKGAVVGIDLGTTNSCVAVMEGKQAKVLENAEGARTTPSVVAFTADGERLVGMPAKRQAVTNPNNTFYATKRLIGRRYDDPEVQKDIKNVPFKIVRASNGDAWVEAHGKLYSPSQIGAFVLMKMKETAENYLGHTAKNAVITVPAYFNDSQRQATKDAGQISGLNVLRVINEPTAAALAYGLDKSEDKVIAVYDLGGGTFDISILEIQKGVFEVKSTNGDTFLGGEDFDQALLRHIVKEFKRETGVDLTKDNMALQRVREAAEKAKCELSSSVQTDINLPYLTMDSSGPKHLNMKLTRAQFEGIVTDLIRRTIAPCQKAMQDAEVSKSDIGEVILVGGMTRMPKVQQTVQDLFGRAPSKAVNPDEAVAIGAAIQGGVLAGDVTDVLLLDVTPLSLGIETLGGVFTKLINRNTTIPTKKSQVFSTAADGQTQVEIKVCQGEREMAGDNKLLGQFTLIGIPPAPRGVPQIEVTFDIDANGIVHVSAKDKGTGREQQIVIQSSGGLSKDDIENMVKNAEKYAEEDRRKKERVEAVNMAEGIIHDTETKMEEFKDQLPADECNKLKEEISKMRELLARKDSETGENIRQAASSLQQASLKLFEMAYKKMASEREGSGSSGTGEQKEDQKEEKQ

[6] = target: human mitochondrial DnaK-type chaperone mtHSP70, mature form (human, UniProt P38646 47-679); assay: cell-based or functional assay
Sequence of human mitochondrial DnaK-type chaperone mtHSP70, mature form (human, UniProt P38646 47-679) (P38646 47-679): as above

Molecule: human mitochondrial DnaK-type chaperone mtHSP70, mature form (from UniProt P38646 47-679) (natural protein)
%S of ISCU(N90A) at mole fraction 1.0 of added mtHSP70 [3]: 83%
%S of ISCU(H105A) at mole fraction 1.0 of added mtHSP70 [4]: 0.54%

B1: human iron-sulfur cluster scaffold protein ISCU, wild type, mature form (natural protein, UniProt Q9H1K1 35-167, looked up)
chain: YHKKVVDHYENPRNVGSLDKTSKNVGTGLVGAPACGDVMKLQIQVDEKGKIVDARFKTFGCGSAIASSSLATEWVKGKTVEEALTIKNTDIAKELCLPPVKLHCSMLAEDAIKAALADYKLKQEPKKGEAEKK
ATPase activity of 1 μM mtHSP70: increase over basal activity with 15 μM ISCU and 4 μM HSC20 [6]: ~15 fold
ATPase activity of 1 μM mtHSP70: maximal stimulation upon adding ISCU in the presence of 5 μM HSC20, double-reciprocal plot [6]: ~17 fold

Now from value to molecule:

%S of ISCU(N90A) after adding 1 eq of HSC20 [1]: 99%
%S of ISCU after adding equimolar HSC20 [2]: 31%
Molecule: human mitochondrial DnaJ-type co-chaperone HSC20, mature form (natural protein)

ATPase activity of 1 μM mtHSP70: concentration of ISCU(N90A) required for half-maximal stimulation in the presence of 5 μM HSC20, double-reciprocal plot [5]: 3.5 µM
ATPase activity of 1 μM mtHSP70: maximal stimulation by ISCU(N90A) in the presence of 5 μM HSC20, double-reciprocal plot [5]: 8 fold
ATPase activity of 1 μM mtHSP70 as a function of added ISCU(N90A) up to 24 μM in the presence of 5 μM HSC20: increase over basal activity [5]: 7 fold
Molecule: human ISCU(N90A), mature form (natural protein)
